The values below come from publication PMC3448795 (2012).

Broadly, the Kd is the concentration at which binding is half-saturated. Lower therefore signals tighter binding.

Experiment [1] concerns the target T1, HDM2(25-47) (Homo sapiens, not fully specified; Ca2+; peptide N-acetylated, C-amidated).
T1 chain: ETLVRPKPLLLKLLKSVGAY
The experiment in a line: NMR line shape analysis.

The target in experiment [2] is T2, TRTK12 (CapZ peptide 265-276) (Homo sapiens, not fully specified).
T2 chain: Ac-TRTKIDWNKILS-NH2
The experiment in a line: NMR line shape analysis.

Experiment [3] addresses T3, HDM4(25-47) (Homo sapiens, not fully specified; Ca2+; peptide N-acetylated, C-amidated).
T3 chain: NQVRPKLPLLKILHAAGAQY
The experiment can be described thus: NMR line shape analysis.

The target in experiment [4] is T1, HDM2(25-47). The experiment in a line: ITC. For orientation: In ITC the heat of successive injections is recorded.
For experiment [5], the target named is T2, TRTK12 (CapZ peptide 265-276). The experiment can be described thus: ITC.
For the next experiment, the target named is T4, NDR(62-87), site 1 (Homo sapiens, not fully specified; Ca2+; peptide N-acetylated, C-amidated).
T4 chain: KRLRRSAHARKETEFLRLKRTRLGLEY
The experiment in a line: ITC.

Experiment [6] deals with T3, HDM4(25-47). The experiment can be described thus: ITC.
A further experiment deals with T5, NDR(62-87), site 2 (Homo sapiens, not fully specified; Ca2+; peptide N-acetylated, C-amidated).
T5 chain: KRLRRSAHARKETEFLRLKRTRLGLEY
The experiment in a line: ITC.

B1: S100B (protein)
chain: SELEKAMVALIDVFHQYSGREGDKHKLKKSELKELINNELSHFLEEIKEQEVVDKVMETLDNDGDGECDFQEFMAFVAMVTTACHEFFEHE
For the molecule B1, the Kd with HDM2(25-47) [1] was 100 nM; in experiment [2], 1000 nM; in the experiment with HDM4(25-47) [3], 1000 nM; with HDM2(25-47) [4], 500 nM; in experiment [5], 2000 nM; with NDR(62-87), site 1 it was 400 nM. Moreover, the Kd in the experiment with HDM4(25-47) [6] amounted to 70 nM; with NDR(62-87), site 2, 2000 nM.
